Experimental data as given in PMC11046786.

Target: Psilocybe mexicana IasA (indole-3-acetaldehyde synthase), C-terminally hexahistidine-tagged (Psilocybe mexicana)
Test: SEC; Superdex 200 increase 10/300 GL, native protein, 50 mM sodium phosphate, 150 mM NaCl, pH 7.2, 0.5 mL/min

**Q.** How did the stoichiometry N turn out when “Psilocybe mexicana IasA (indole-3-acetaldehyde synthase), C-terminally hexahistidine-tagged (enzyme)” was run?
**A.** The stoichiometry N was 2.
